# B1: ANKRD9 (parent)
# chain: VGAAGSARQELLGDRPRWQRLLGE
# Variants of: B1
# Assay: protein stability index of a GFP-peptide fusion (GPS, HEK-293T) (PSI 1-6); higher = more stable
# Settings: c terminus: a fixed tail appended
# 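Also: lentivirally expressed fusions sorted by FACS into six bins by GFP to DsRed ratio, PSI derived from sequencing read proportions per bin multiplied by bin number.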
row,Variant,protein stability index
1,VGAAGSARQELLGDRCRWQRLLGE,3.24
2,VGAAGSARQELLGDRPRWQMLLGE,2.81
3,VGARGSARQELLGDRPRWQRLLGE,3.02
4,VGAAGSARQELLGDEPRWQRLLGE,3.27
5,VGAAGSARQELLGYRPRWQRLLGE,2.86
6,VGAYGSARQELLGDRPRWQRLLGE,2.08
7,VGAAGVARQELLGDRPRWQRLLGE,2.86
8,VGAAGSARQECLGDRPRWQRLLGE,3.22
9,VGAAGSARQELLGDRPRWVRLLGE,2.9
10,VGAAGSARQELLGDRPRWQFLLGE,3.28
11,VGAAGSARQELLGDQPRWQRLLGE,3.96
12,VGAAGSADQELLGDRPRWQRLLGE,3.53
13,VGAAGSARQELLGDRPIWQRLLGE,2.83
14,VGAAGSARQELLGDIPRWQRLLGE,2.73
15,VGAAGSARQELLGDRPRWQRLLGR,3.26
16,VGAAGSARQELLGDRPRWQRLLGA,3
17,VGAAGSAREELLGDRPRWQRLLGE,2.11
18,VGAAGSSRQELLGDRPRWQRLLGE,2.93
19,VGAAGSARGELLGDRPRWQRLLGE,3.41
20,VGAAGSARQELPGDRPRWQRLLGE,3.55
21,VGAAGSARQELLGNRPRWQRLLGE,2.6
22,VGAAGSARQELLGDRPRWQRLAGE,3.43
23,VGAAGSARQELLGDRPRWQRLLGS,2.77
24,VGAAGSARQELLGDRPRWQRSLGE,4.52

row,Variant,protein stability index
1,VGAAGSARQELLGDRPRWQRVLGE,3.67
2,VGAAGSARQELDGDRPRWQRLLGE,4.17
3,VGAAGSARQQLLGDRPRWQRLLGE,3
4,VGAAGSARQELLLDRPRWQRLLGE,2.66
5,VGAANSARQELLGDRPRWQRLLGE,2.9
6,VGAAGSARQELLGMRPRWQRLLGE,2.76
7,VGAAGSARQELLGDHPRWQRLLGE,4.05
8,VGAAPSARQELLGDRPRWQRLLGE,3.53
9,VGAASSARQELLGDRPRWQRLLGE,4
10,VGAAGSARQEQLGDRPRWQRLLGE,3.8
11,VGAAGSARQELLGDRPRWQRLLGI,2.27
12,VGAAGSARQDLLGDRPRWQRLLGE,3.37
13,VGAAGSARQELLGDRPRWPRLLGE,3.79
14,VGAAISARQELLGDRPRWQRLLGE,2.69
15,VGAAGSARQSLLGDRPRWQRLLGE,3.54
16,VGAAGSARQELLGDRPRWQRLLGY,2.37
17,VGAAGSARQELLGDRPRWQRLLGD,3.13
18,VGAAGSARQELLIDRPRWQRLLGE,2.86
19,VGAALSARQELLGDRPRWQRLLGE,2.68
20,VGAAGSARQELLGDRPRWQRALGE,3.28
21,VGAAGSARQELLGDRPRWQRLRGE,3.67
22,VGAAGSAFQELLGDRPRWQRLLGE,2.5
23,VGAEGSARQELLGDRPRWQRLLGE,2.91
24,VGAAGSARQELLGDRPRWQRNLGE,3.71

row,Variant,protein stability index
1,VGAAGSARQELLGDRPRAQRLLGE,4.38
2,VGAAGSARQELLGDRPRWQRGLGE,2.93
3,VGAAGSERQELLGDRPRWQRLLGE,5
4,VGMAGSARQELLGDRPRWQRLLGE,2.53
5,VGAAGSARNELLGDRPRWQRLLGE,2.74
6,VGAAGSARQELLGDRPRWQRLGGE,3.31
7,VGAAGSARQELLGDRPRWQRLLGL,2.38
8,VGAAGSARQELLGDRPRWQRLLME,3.23
9,VGASGSARQELLGDRPRWQRLLGE,3.24
10,VGAAGSARQELLGDRPRWQRLTGE,3.69
11,VGAAGSARQELLGHRPRWQRLLGE,3.24
12,VGAAGSARQELHGDRPRWQRLLGE,3.6
13,VGAAGSARQELLGDRPRLQRLLGE,4.36
14,VGAAGSARQELTGDRPRWQRLLGE,3
15,VGAAGSARQELLGDRPRWQRLPGE,3.77
16,VGTAGSARQELLGDRPRWQRLLGE,3.14
17,VDAAGSARQELLGDRPRWQRLLGE,3.32
18,VGAAGSARQELLGDRPRWQRLLGP,2.75
19,VGAAGSARQELLGDRPRWQRLLGT,3
20,VGAAGSARQELLGDRPRFQRLLGE,3.54
21,VGAAGSARQELLGDRPRWLRLLGE,2.56
22,MGAAGSARQELLGDRPRWQRLLGE,3.03
23,VGAAGSARQILLGDRPRWQRLLGE,2.4
24,VIAAGSARQELLGDRPRWQRLLGE,2.67

row,Variant,protein stability index
1,VGAAGSARQELLGDRPRWQRCLGE,3.75
2,VGAAGSARQELLPDRPRWQRLLGE,3.7
3,VGAAGSARDELLGDRPRWQRLLGE,3.7
4,VGAAGSAIQELLGDRPRWQRLLGE,3.08
5,VGAAQSARQELLGDRPRWQRLLGE,3.09
6,VGAAGSARQELLGDRPRWQRLLFE,2.71
7,VGAAGSAQQELLGDRPRWQRLLGE,3.37
8,VGAAGSARRELLGDRPRWQRLLGE,3.04
9,VGAAGSARQELLGDRPRKQRLLGE,4.64
10,VMAAGSARQELLGDRPRWQRLLGE,2.69
11,VGAAGSARQERLGDRPRWQRLLGE,2.48
12,VGAAGSARIELLGDRPRWQRLLGE,2.96
13,VGAAGSARQELLGDRKRWQRLLGE,3.68
14,VGAAGSIRQELLGDRPRWQRLLGE,3.49
15,VGAAGSARQELLGDRPRWQNLLGE,3.46
16,VGAAGSARPELLGDRPRWQRLLGE,3.29
17,VGAAGSARQELLGDRPRYQRLLGE,3.78
18,VGAAGSARQELAGDRPRWQRLLGE,3.64
19,VGAAGSARQELLGDRPRWFRLLGE,2.51
20,VGAAGSASQELLGDRPRWQRLLGE,3.47
21,VGAAGSARQELLGDRPRWSRLLGE,2.91
22,VGAAGSARQELLGDRPRWQRLNGE,3.13

# Source: the supplement of paper PMC10567573
